± gives the uncertainty stated by the source.
Assay: amyloid nucleation score (Sup35N fusion, yeast selection) (log enrichment); library NNK3; higher = more nucleation; inactive = no reads after selection
In short: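 Using DiMSum, nucleation scores were taken as the log enrichment of output over input reads, centred on the mode score of non-aggregating sequences. The input and output reads came from Illumina sequencing of plasmid inserts, with sequences under 100 input reads excluded. The yeast were psi-negative, expressed Sup35N fused to peptides of 20 random codons, were induced with 100 μM copper sulfate for 24 hours, and were grown 7 days at 30°C on medium lacking adenine and uracil.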

Substance | amyloid nucleation score
DLGLNYFESSRDPDGSLLYL | inactive
DLHMIATMGECMHCEMHL | inactive
DLIRQRAETPKMVISWR | inactive
DLRALPKVFLMLDKYSIMSG | inactive
DLSIRKFHGGSMDSLNMEYM | inactive
DLSKTGTSNNLLFTERISDI | inactive
DMCEGYVNYCRMHRAMRHDD | inactive
DMIINILRSDYQWWSAN | inactive
DNCLNCNRCKCIYKDFWLSA | inactive
DNICIYWALDGIYECSRHSR | inactive
DNLQVTRCYLADWMSSVT | inactive
DNRSL | -0.501 ± 0.66
DNTQLSVCWSLSPDTVWKLG | inactive
DPFVRDIWQREYQWES | inactive
DPHCQGFVWGSCMDVWYLSL | 2.7 ± 0.062
DPINNYSLFFKLCLELHFFA | inactive
DQGNPSNSSLDLPLGGSFGE | inactive
DQQCDDVWRRWDGYGRRKKR | inactive
DREST | inactive
DRFSYFAIFPWYRMCYGMLE | inactive
DRGRMCMNAFPFLCWIWFHG | inactive
DRQRWSRLCAGQSLYNCGKC | inactive
DRSIEVDAYSCAVGVYQGPV | inactive

Substance | amyloid nucleation score
DRTHDSSDSCGCCNNL | inactive
DRVKACARFGRW | inactive
DRVSFSITY | inactive
DSCKPCQKPTAIHVYMVEFP | inactive
DSCVPIYVDTYGGDLDVNGG | inactive
DSFAGVRLGVHASNILIHGQ | inactive
DSGLFKYSYGLWEKLLFYRM | inactive
DSICYHAFYMEEGGS | inactive
DSKVLSFSWAMFMLIM | inactive
DSLLDGYSHWAKWGSTRCVR | inactive
DSSFLATFFILVTGCCLLVD | inactive
DSSLYKDQYRVRSSGQFKRA | inactive
DSSSWSHL | -0.291 ± 1.4
DSVVRTSQMSVGYMCVRAEF | inactive
DSWTAACAHSR | inactive
DSYIVYDKQDPS | inactive
DTTFMQYVAIYVLVSKLFIE | inactive
DVALCKYFGLNTIVNSFLAM | 1.42 ± 0.081
DVCRTQSFGVAKTVIFCFLF | inactive
DVMKICMKLSLHICTVHISS | inactive
DVMSILLTNVMLSKSALELS | inactive
DVNCALYGKGLDVCRI | inactive
DVNFWSLYKFCTRVDFGLSY | inactive

Substance | amyloid nucleation score
DVQCGVIMRGLDKYFDLNSA | inactive
DWATFNLIKAVYLRRCSCGL | inactive
DYGLHDRTYTSIYRVA | inactive
DYKMVRYWNLE | inactive
DYLLWESKGLVWKCMMTCCG | inactive
DYLVFFRPLFNSIDSHWIRS | inactive
DYSFYTFPESAVLCTCSSYG | -0.682 ± 1.1
DYTLDANFEGCHGQLTYMND | inactive
EAMPHLARGFVVFMCFFRSG | inactive
EASLSGGYTEYVGDFMRLVT | inactive
EAVYLSLYKECLCLVRVS | inactive
EAWIIMSRVGI | inactive
ECFEVEQGILDAHSNCWGNI | 0.778 ± 0.2
ECLLPKIAMHVKRMVPQFGT | inactive
ECRYIPLYREFTRRVSMSGL | inactive
ECSVSMCEKGITYRSVVERG | inactive
ECYIVWFLRLCSSGVYVYLR | inactive
EDERNSMCTKPIRDHRLSWM | inactive
EDGCRNVRLFTMVRSLMYK | inactive
EDLSVNNSAYVFPSLE | inactive
EDQLL | -0.077 ± 0.54
EDYRVGW | inactive
EEVMMRAINQEAPCEPQLRV | inactive

Substance | amyloid nucleation score
EEVSVA | inactive
EFALTIWCLGAALCIIKSLS | inactive
EFGFVNGNRAGWGYFQRRAL | -0.55 ± 2.4
EFGVVVNEFYGDVY | inactive
EFSYISVCRLQLLMHTKIWD | 1.43 ± 0.14
EFVRVLRDISLVSGVMGYHY | inactive
EFWQFDRYVLSNTVSLFSGC | inactive
EGCSVRRTTHRAQVMRVGWM | inactive
EGFIVSRISAGDRSGDMEGC | inactive
EGNCELCRLWYNWGRVAGNK | 0.457 ± 0.2
EHCSGNFRLNLSCDEVHIWM | 2.99 ± 0.063
EHFNPRNC | inactive
EHNNQLGIWSTYPCSNLSGH | inactive
EHNYVSTIGYSCRFEPGTRR | inactive
EIGFYCPSGAGGHRKDRVLR | inactive
EKCWFQVCCTRSLGKSGIIC | inactive
EKGIGYKLCMGQYAGS | inactive
EKQKSLFCVLMVGLFYVNV | inactive
EKSICWSNFIAWITIWPKGR | inactive
EKTWKDWTHLSGRKRMI | inactive
ELCEKMFRTIFCFKCRVCMN | inactive
ELCTVLIVRFSRGSERLKNE | inactive
ELFDWTFLFPDSSINMWK | inactive

Substance | amyloid nucleation score
ELGGFFNEAGVTNHPIMS | inactive
ELRCFTQIGLGSCYRFIGYI | 0.371 ± 0.74
ELRELFQNCL | inactive
ELRSL | inactive
ELYMQMCYRRIGCV | inactive
ENWTDGM | inactive
EPYPM | inactive
EQSLFES | inactive
ERALPQGMDRWSWFRERSCH | inactive
ERIVPA | inactive
ERKVCAG | inactive
ERPSLVEW | inactive
ERRKIGLKLLRLRQNNGIMA | inactive
ERSITGYNPPRRV | -0.561 ± 0.82
ESADATLREAKSSVYKKYRY | inactive
ESFESVYR | inactive
ESRLIISKDGRRSMSKHGGP | inactive
ESRSFCLNCQGWVSSEA | inactive
ESRSRLRNGTLFNCVIN | -0.081 ± 0.5
ESVCYLFCYSHYLGNYGYGS | inactive
ETHLDTLPVVYHLWLLHVLM | inactive
ETLGFVSMCHDSLMHNH | inactive
ETLWVKVYLTYLNMTRMSGY | inactive

Substance | amyloid nucleation score
ETNEGPH | inactive
ETQWFEI | inactive
ETYFAQWLNFL | inactive
EVFEWSVRLFSTL | inactive
EVFSDVY | inactive
EVKAMTWLVIVETIVFMS | inactive
EVLNCSR | inactive
EVQVFSFDTGCMHSHNLYAS | inactive
EVSWD | inactive
EWPVNTNVYFCFMYTANFNT | 2.63 ± 0.055
EYCKISD | inactive
EYDSYSKIYWHISLAVFILI | inactive
EYGALSTFLRG | -0.337 ± 0.9
EYHKMTGIFAPLFILIMVV | inactive
EYLPEQPVCIVMSYTPKFPC | inactive
EYNPWFDCWICSEVSATNNR | 1.96 ± 0.077
EYSLMVNSTIDYFGDSNICE | inactive
EYYDI | inactive
FAQFLG | inactive
FARFSIAFMH | 0.231 ± 0.9
FATVYELAYYQGTYCKVRCS | 0.148 ± 0.78
FAVTLNSWRARFRFMDRNDM | 0.682 ± 0.26
FAYITHLKKYKSWTVPWTYY | inactive

Substance | amyloid nucleation score
FAYWWRTVTPVCSGLVRYCW | inactive
FCACLERQTSLNF | inactive
FCDAKYLRLRSCALISMPSV | inactive
FCFSYSYAYFCHIYGCGSNR | -0.281 ± 0.36
FCFYRKKGVVGCILFYACFR | inactive
FCLLIRAVSPCLTSGRIILV | inactive
FCLVGIFTCRGTLNTLLALH | inactive
FCMALRKRNFGRFMSKSKEY | inactive
FCNCNMFYDLCLCAHGMPSA | 2.99 ± 0.067
FCRPLSCRSIWCHLLPTHLR | inactive
FCRQGNILFY | inactive
FCVTQWRAQRASHLYFMPGE | inactive
FDERRSRGPSKSMKGLLTTY | inactive
FDERSF | inactive
FDLFFACFPSRETGLKSCKT | inactive
FDLLRSNYYSFRCVCEVIDR | inactive
FDLRSWCM | inactive
FDLTWSIVEHFHVWLLRFSF | inactive
FDMVFVLENRLYRSMANLSF | inactive
